# Measurements as given in the supplement of paper PMC9112550, “Optimization of the antimicrobial peptide Bac7 by deep mutational scanning” (BMC Biology, 2022).
# Test system: Escherichia coli TOP10
# Experiment: shrunken log2 fold change of peptide-encoding DNA abundance (4.5 h post-induction vs induction); higher = less antimicrobial activity (less host growth inhibition)
# Conditions: time post-induction: 4.5 h; library: site-saturation at positions 5, 18, 19, 20
# 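Further: peptides expressed intracellularly from a pBAD plasmid library in pooled LB shake-flask culture, induced with 0.3% L-arabinose, DNA abundance read by NGS, three biological replicates, DESeq2 with apeglm shrinkage.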
row,Sequence,shrunken log2 fold change
1,RRIRLRPPRLPRPRPRPVCTPRP,-0.0517
2,RRIRTRPPRLPRPRPRPKYCPRP,-0.0743
3,RRIRDRPPRLPRPRPRPCHEPRP,-0.0135
4,RRIRFRPPRLPRPRPRPGPGPRP,0.676
5,RRIRRRPPRLPRPRPRPYMCPRP,0.154
6,RRIRERPPRLPRPRPRPRDNPRP,-0.321
7,RRIRFRPPRLPRPRPRPWNCPRP,-0.0434
8,RRIRLRPPRLPRPRPRPEHWPRP,0.4
9,RRIRIRPPRLPRPRPRPHGLPRP,-0.00134
10,RRIRSRPPRLPRPRPRPNNFPRP,-0.667
11,RRIRMRPPRLPRPRPRPRDDPRP,0.202
12,RRIRIRPPRLPRPRPRPCYVPRP,-0.411
13,RRIRKRPPRLPRPRPRPVMHPRP,-0.0631
14,RRIRKRPPRLPRPRPRPPAHPRP,0.808
15,RRIRWRPPRLPRPRPRPRIKPRP,0.0187
16,RRIRFRPPRLPRPRPRPPSSPRP,0.208
17,RRIRSRPPRLPRPRPRPALHPRP,0.16
18,RRIRQRPPRLPRPRPRPSTRPRP,0.00434
19,RRIRYRPPRLPRPRPRPGQTPRP,-0.0773
20,RRIRERPPRLPRPRPRPCHYPRP,-0.224
21,RRIRHRPPRLPRPRPRPTYQPRP,0.0668
22,RRIRVRPPRLPRPRPRPPHFPRP,0.696
23,RRIRFRPPRLPRPRPRPQFLPRP,-0.236
24,RRIRIRPPRLPRPRPRPVSIPRP,-0.624
25,RRIRPRPPRLPRPRPRPHLCPRP,0.0476

row,Sequence,shrunken log2 fold change
1,RRIRWRPPRLPRPRPRPWFQPRP,-0.125
2,RRIRPRPPRLPRPRPRPIKSPRP,-0.0993
3,RRIRARPPRLPRPRPRPVEEPRP,1.03
4,RRIRWRPPRLPRPRPRPAQLPRP,1.63
5,RRIRIRPPRLPRPRPRPHVRPRP,0.031
6,RRIRSRPPRLPRPRPRPFGCPRP,0.029
7,RRIRYRPPRLPRPRPRPMWMPRP,-0.00149
8,RRIRTRPPRLPRPRPRPMAQPRP,0.074
9,RRIRLRPPRLPRPRPRPQAGPRP,-0.0299
10,RRIRWRPPRLPRPRPRPEAMPRP,0.142
11,RRIRPRPPRLPRPRPRPDYTPRP,-0.957
12,RRIRWRPPRLPRPRPRPKEVPRP,0.0717
13,RRIRERPPRLPRPRPRPDMTPRP,0.133
14,RRIRPRPPRLPRPRPRPIIAPRP,-0.681
15,RRIRCRPPRLPRPRPRPEHEPRP,0.188
16,RRIRMRPPRLPRPRPRPTLNPRP,0.299
17,RRIRRRPPRLPRPRPRPGIDPRP,-0.0704
18,RRIRARPPRLPRPRPRPNYMPRP,-0.2
19,RRIRNRPPRLPRPRPRPTRMPRP,0.245
20,RRIRKRPPRLPRPRPRPQYFPRP,-0.0337
21,RRIRTRPPRLPRPRPRPLCWPRP,0.0326
22,RRIRIRPPRLPRPRPRPVFYPRP,-0.333
23,RRIRFRPPRLPRPRPRPYFFPRP,-0.544
24,RRIRQRPPRLPRPRPRPPDCPRP,-0.0194
25,RRIRGRPPRLPRPRPRPQWVPRP,0.218

row,Sequence,shrunken log2 fold change
1,RRIRDRPPRLPRPRPRPNSSPRP,-0.675
2,RRIRKRPPRLPRPRPRPHVIPRP,-0.257
3,RRIRKRPPRLPRPRPRPIKHPRP,0.567
4,RRIRIRPPRLPRPRPRPSAGPRP,-0.334
5,RRIRARPPRLPRPRPRPRWVPRP,0.267
6,RRIRSRPPRLPRPRPRPGLFPRP,0.163
7,RRIRHRPPRLPRPRPRPCIQPRP,-0.00018
8,RRIRCRPPRLPRPRPRPKQVPRP,0.44
9,RRIRPRPPRLPRPRPRPVNDPRP,-0.106
10,RRIRWRPPRLPRPRPRPCAGPRP,0.0556
11,RRIRKRPPRLPRPRPRPYTIPRP,-0.0634
12,RRIRSRPPRLPRPRPRPTRGPRP,0.581
13,RRIRVRPPRLPRPRPRPNPLPRP,-0.167
14,RRIRRRPPRLPRPRPRPWAYPRP,-0.0717
15,RRIRRRPPRLPRPRPRPMKVPRP,-0.0467
16,RRIRWRPPRLPRPRPRPANCPRP,0.0179
17,RRIRNRPPRLPRPRPRPAYKPRP,-0.128
18,RRIRWRPPRLPRPRPRPFIFPRP,-0.0639
19,RRIRMRPPRLPRPRPRPVLFPRP,0.289
20,RRIRWRPPRLPRPRPRPKQGPRP,0.125
21,RRIRGRPPRLPRPRPRPIEDPRP,0.0783
22,RRIRVRPPRLPRPRPRPDSGPRP,-0.0439
23,RRIRHRPPRLPRPRPRPCIKPRP,-0.721
24,RRIRDRPPRLPRPRPRPYSAPRP,-0.0545
25,RRIRKRPPRLPRPRPRPIQGPRP,-0.0243

row,Sequence,shrunken log2 fold change
1,RRIRPRPPRLPRPRPRPETAPRP,0.396
2,RRIRKRPPRLPRPRPRPTSTPRP,0.489
3,RRIRHRPPRLPRPRPRPNSEPRP,-0.795
4,RRIRCRPPRLPRPRPRPYHRPRP,-0.77
5,RRIRSRPPRLPRPRPRPLFLPRP,-0.00337
6,RRIRKRPPRLPRPRPRPDFHPRP,-0.312
7,RRIRCRPPRLPRPRPRPLKLPRP,-0.271
8,RRIRIRPPRLPRPRPRPLTEPRP,-0.044
9,RRIRYRPPRLPRPRPRPDFIPRP,-0.348
10,RRIRHRPPRLPRPRPRPMGNPRP,-0.0499
11,RRIRQRPPRLPRPRPRPAYAPRP,-0.189
12,RRIRQRPPRLPRPRPRPQIIPRP,-0.0763
13,RRIRSRPPRLPRPRPRPRSIPRP,-0.0602
14,RRIRGRPPRLPRPRPRPHIQPRP,0.192
15,RRIRGRPPRLPRPRPRPCFIPRP,0.0559
16,RRIRDRPPRLPRPRPRPKLVPRP,0.0305
17,RRIRLRPPRLPRPRPRPPRRPRP,0.746
18,RRIRRRPPRLPRPRPRPVDVPRP,1.09
19,RRIRERPPRLPRPRPRPWDTPRP,-0.623
20,RRIRSRPPRLPRPRPRPCTGPRP,-0.0404
21,RRIRPRPPRLPRPRPRPWWNPRP,-0.227
22,RRIRLRPPRLPRPRPRPHGVPRP,-0.0127
23,RRIRSRPPRLPRPRPRPTASPRP,0.116
24,RRIRSRPPRLPRPRPRPDMPPRP,-0.0754
25,RRIRIRPPRLPRPRPRPSHVPRP,-0.523

row,Sequence,shrunken log2 fold change
1,RRIRTRPPRLPRPRPRPGEPPRP,-0.026
2,RRIRDRPPRLPRPRPRPITLPRP,-0.0934
3,RRIRVRPPRLPRPRPRPTQIPRP,0.149
4,RRIRGRPPRLPRPRPRPSTIPRP,0.235
5,RRIRKRPPRLPRPRPRPMPQPRP,0.0873
6,RRIRKRPPRLPRPRPRPSGRPRP,0.288
7,RRIRSRPPRLPRPRPRPTNFPRP,0.0979
8,RRIRKRPPRLPRPRPRPHDQPRP,0.0273
9,RRIRKRPPRLPRPRPRPDWAPRP,-0.0624
10,RRIRLRPPRLPRPRPRPNHFPRP,-0.349
11,RRIRKRPPRLPRPRPRPRADPRP,0.511
12,RRIRLRPPRLPRPRPRPKPSPRP,0.432
13,RRIRFRPPRLPRPRPRPGGWPRP,0.654
14,RRIRCRPPRLPRPRPRPGREPRP,2.28
15,RRIRGRPPRLPRPRPRPKCSPRP,0.704
16,RRIRPRPPRLPRPRPRPGNVPRP,-0.344
17,RRIRRRPPRLPRPRPRPIRCPRP,0.334
18,RRIRPRPPRLPRPRPRPMVAPRP,0.208
19,RRIRSRPPRLPRPRPRPCSQPRP,-0.214
20,RRIRVRPPRLPRPRPRPMHGPRP,0.00623
21,RRIRSRPPRLPRPRPRPCFPPRP,-0.747
22,RRIRNRPPRLPRPRPRPWPDPRP,0.646
23,RRIRLRPPRLPRPRPRPEMQPRP,0.0197
24,RRIRWRPPRLPRPRPRPIQQPRP,0.0331
25,RRIRYRPPRLPRPRPRPLTLPRP,-0.267

row,Sequence,shrunken log2 fold change
1,RRIRARPPRLPRPRPRPRRDPRP,0.656
2,RRIRTRPPRLPRPRPRPCRQPRP,-0.303
3,RRIRRRPPRLPRPRPRPCTKPRP,-0.147
4,RRIRFRPPRLPRPRPRPTLSPRP,0.0323
5,RRIRPRPPRLPRPRPRPVCVPRP,0.146
6,RRIRNRPPRLPRPRPRPVWYPRP,-0.326
7,RRIRQRPPRLPRPRPRPWMQPRP,-0.062
8,RRIRQRPPRLPRPRPRPAVKPRP,-0.00195
9,RRIRKRPPRLPRPRPRPEWCPRP,0.278
10,RRIRWRPPRLPRPRPRPVEVPRP,-0.0825
11,RRIRNRPPRLPRPRPRPTIFPRP,-0.248
12,RRIRPRPPRLPRPRPRPVGAPRP,0.561
13,RRIRPRPPRLPRPRPRPCWLPRP,-0.018
14,RRIRVRPPRLPRPRPRPHYVPRP,0.0323
15,RRIRGRPPRLPRPRPRPMFCPRP,0.178
16,RRIRQRPPRLPRPRPRPSQVPRP,-0.23
17,RRIRLRPPRLPRPRPRPCKNPRP,-0.0458
18,RRIRQRPPRLPRPRPRPRWWPRP,0.417
19,RRIRNRPPRLPRPRPRPYDCPRP,-0.109
20,RRIRWRPPRLPRPRPRPAYLPRP,-0.108
21,RRIRHRPPRLPRPRPRPDPSPRP,-0.00848
22,RRIRRRPPRLPRPRPRPSVIPRP,-0.00654
23,RRIRCRPPRLPRPRPRPMKHPRP,-0.486
24,RRIRCRPPRLPRPRPRPCAFPRP,-0.311
25,RRIRHRPPRLPRPRPRPFKIPRP,-0.192
